Data on 3 molecules can be found in patent US20160222132A1 (IGM BIOSCIENES, published 2016).

Changes are numbered by the printed parent chain. Names may count otherwise.

In data set [1] the target is T1, Fc2b (human µ chain CH2 to CH4 with C291S, L352S, T354K, H395V and I397K mutations and tail piece deletion) (human, UniProt P01871 112-433).
T1 construct: also called Pc2b
T1 chain: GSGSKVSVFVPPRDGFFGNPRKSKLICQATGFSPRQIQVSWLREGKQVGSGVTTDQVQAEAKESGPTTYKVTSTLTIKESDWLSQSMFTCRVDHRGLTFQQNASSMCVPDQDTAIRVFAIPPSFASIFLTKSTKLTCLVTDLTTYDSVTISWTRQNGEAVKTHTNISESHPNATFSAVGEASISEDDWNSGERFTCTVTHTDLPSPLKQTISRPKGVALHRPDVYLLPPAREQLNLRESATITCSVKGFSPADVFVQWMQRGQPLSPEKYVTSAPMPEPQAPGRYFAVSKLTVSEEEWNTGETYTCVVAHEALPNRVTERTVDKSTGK
Nature of the data set: co-transfection in 293F cells, Capture Select IgM immunoprecipitation, non-reducing SDS-PAGE (FIG. 6, lane 2). The method, then:
(§1) IgM was made by co-transfection of several different expression vectors at equal molar ratios into mammalian cells, such as 293F cells (Invitrogen). 10 μg of mixed DNA for expression vectors were mixed with 20 μl of 293Fectin (Invitrogen) for 30 minutes at room temperature in 2 ml of Opti-MEM (Invitrogen) and then added to 10⁷ 293F cells. Transfections with 293F cells were incubated for 72 hours post-transfection before harvesting the supernatant.
(§2) b. Protein purification by immunoprecipitation. [0243] i. Capture Select IgM (Catalog 2890.05, BAC, Thermo Fisher) [0244] Transfected supernatant were harvested by centrifugation at 2,000 G for 10 minutes. IgM proteins were purified by immunoprecipitation with affinity Capture Select IgM affinity matrix. 100 μl of Capture Select IgM slurry were added to 15 ml of harvested supernatant. […] The affinity matrixes were further washed with 60 μl of PBS and the supernatant were pooled for analysis by gel electrophoresis.
(§3) c. Gel electrophoresis [0246] i. Non-reducing SDS Page [0247] Non-reducing SDS PAGE was used to separate various mutant IgM proteins of different molecular weights. Novex 4-12% Bis-Tris Gel (Life Technologies) was used with Novex MES SDS Running Buffer (Life Technologies). [0248] II.

Data set [2] has as its target T2, Fc2a (human µ chain CH2 to CH4 region with C291S, T350Y, T354E and I397E mutations and tail piece deletion) (human, UniProt P01871 112-433).
T2 chain: T1 chain with T243Y, S245L, K247E, V288H, K290E
Nature of the data set: co-transfection in 293F cells, Capture Select IgM immunoprecipitation, non-reducing SDS-PAGE (FIG. 6, lane 3). The method, then:
as §1, §2, §3

Data set [3] concerns the molecule itself. Nature of the data set: self-association (Fc homodimer); co-transfection of wild-type Okt:Fc in 293F cells, Capture Select IgM immunoprecipitation, non-reducing SDS-PAGE (FIG. 8, lane 1).

B1: Rtx2a (µ chain of chimeric Rituxan (anti-CD20) Vh fused with CM1 to CM4 of human µ chain with C291S, T350Y, T354E and I397E mutations and tail piece deletion) … (antibody)
heavy: QVQLQQPGAELVKPGASVKMSCKASGYTFTSYNMHWVKQTPGRGLEWIGAIYPGNGDTSYNQKFKGKATLTADKSSSTAYMQLSSLTSEDSAVYYCARSTYYGGDWYFNVWGAGTTVTVSSGSASAPTLFPLVSCENSPSDTSSVAVGCLAQDFLPDSITFSWKYKNNSDISSTRGFPSVLRGGKYAATSQVLLPSKDVMQGTDEHVVCKVQHPNGNKEKNVPLPVIAELPPKVSVFVPPRDGFFGNPRKSKLICQATGFSPRQIQVSWLREGKQVGSGVTTDQVQAEAKESGPTTYKVTSTLTIKESDWLSQSMFTCRVDHRGLTFQQNASSMCVPDQDTAIRVFAIPPSFASIFLTKSTKLTCLVTDLTTYDSVTISWTRQNGEAVKTHTNISESHPNATFSAVGEASISEDDWNSGERFTCTVTHTDLPSPLKQTISRPKGVALHRPDVYLLPPAREQLNLRESATIYCLVEGFSPADVFVQWMQRGQPLSPEKYVTSAPMPEPQAPGRYFAHSELTVSEEEWNTGETYTCVVAHEALPNRVTERTVDKSTGK
light: QIVLSQSPAILSASPGEKVTMTCRASSSVSYIHWFQQKPGSSPKPWIYATSNLASGVPVRFSGSGSGTSYSLTISRVEAEDAATYYCQQWTSNPPTFGGGTKLEIKRTVAAPSVFIFPPSDEQLKSGTASVVCLLNNFYPREAKVQWKVDNALQSGNSQESVTEQDSKDSTYSLSSTLTLSKADYEKHKVYACEVTHQGLSSPVTKSFNRGEC
notes: One HL half pairs with the partner µ chain
As for B1, the binding result in data set [1] was “binds”.

B2: Rtx2b (µ chain of chimeric Rituxan (anti-CD20) Vh fused with CM1 to CM4 of human mu chain with C291S, L352S, T354K, H395V and I397K mutations and tail piece … (antibody)
heavy: B1 heavy with Y471T, L473S, E475K, H516V, E518K
light: B1 light
notes: as for B1
As to B2, in data set [2], the binding result was “binds”.

B3: Fc chain (human IgM µ chain CM2 to CM4, cMyc tag, tail piece replaced by 6His tag, C291S) (other)
chain: GSGSKVSVFVPPRDGFFGNPRKSKLICQATGFSPRQIQVSWLREGKQVGSGVTTDQVQAEAKESGPTTYKVTSTLTIKESDWLSQSMFTCRVDHRGLTFQQNASSMCVPDQDTAIRVFAIPPSFASIFLTKSTKLTCLVTDLTTYDSVTISWTRQNGEAVKTHTNISESHPNATFSAVGEASISEDDWNSGERFTCTVTHTDLPSPLKQTISRPKGVALHRPDVYLLPPAREQLNLRESATITCLVTGFSPADVFVQWMQRGQPLSPEKYVTSAPMPEPQAPGRYFAHSILTVSEEEWNTGETYTCVVAHEALPNRVTERTVDKSTGKGGGSEQKLISEEDLNSAVDHHHHHH
notes: Native CM4 interface; also called wild-type Fc
With B3, the binding result in data set [3] is given as “binds”.
